Results on three molecules are retold here after publication doi:10.1101/2020.03.02.972281 (bioRxiv, 2020).

Assay [1] deals with T1, transferrin (human, UniProt P02787 20-698). Kind of assay: SPR.
The target of assay [2] is T1, transferrin. Kind of assay: native gel or EMSA.

T1 sequence (P02787 20-698): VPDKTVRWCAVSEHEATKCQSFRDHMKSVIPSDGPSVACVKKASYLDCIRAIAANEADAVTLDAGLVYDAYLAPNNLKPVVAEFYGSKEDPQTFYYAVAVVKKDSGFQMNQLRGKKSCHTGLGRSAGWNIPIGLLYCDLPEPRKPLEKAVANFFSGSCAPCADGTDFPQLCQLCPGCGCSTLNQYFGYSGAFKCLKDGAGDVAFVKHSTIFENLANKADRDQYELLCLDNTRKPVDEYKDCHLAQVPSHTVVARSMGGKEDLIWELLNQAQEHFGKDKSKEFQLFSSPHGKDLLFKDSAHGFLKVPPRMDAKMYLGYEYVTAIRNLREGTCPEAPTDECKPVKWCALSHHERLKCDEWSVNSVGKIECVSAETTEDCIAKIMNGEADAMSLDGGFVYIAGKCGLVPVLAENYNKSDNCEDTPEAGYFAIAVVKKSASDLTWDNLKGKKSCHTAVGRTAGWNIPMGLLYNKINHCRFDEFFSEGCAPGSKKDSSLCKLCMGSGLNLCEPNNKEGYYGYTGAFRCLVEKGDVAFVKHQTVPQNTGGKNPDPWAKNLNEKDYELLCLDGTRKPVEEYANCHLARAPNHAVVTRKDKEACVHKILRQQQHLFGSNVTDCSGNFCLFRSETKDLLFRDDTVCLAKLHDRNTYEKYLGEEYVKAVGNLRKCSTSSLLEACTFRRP

In the assay with transferrin [1], “CD14 (SEA518Mu-48T, Uscn) (from UniProt P08571 20-345) (natural protein)” came in with a Kd of 14 nM, a koff of 0.00033 s⁻¹ and a kon of 24000 M⁻¹ s⁻¹.

B1: human CD14 (natural protein, UniProt P08571 20-345, looked up)
chain: TTPEPCELDDEDFRCVCNFSEPQPDWSEAFQCVSAVEVEIHAGGLNLEPFLKRVDADADPRQYADTVKALRVRRLTVGAAQVPAQLLVGALRVLAYSRLKELTLEDLKITGTMPPLPLEATGLALSSLRLRNVSWATGRSWLAELQQWLKPGLKVLSIAQAHSPAFSCEQVRAFPALTSLDLSDNPGLGERGLMAALCPHKFPAIQNLALRNTGMETPTGVCAALAAAGVQPHSLDLSHNSLRATVNPSAPRCMWSSALNSLNLSFAGLEQVPKGLPAKLRVLDLSCNRLNRAPQPDELPEVDNLTLDGNPFLVPGTALPHEGSMN
Turning to B1, the binding result with transferrin [2] is “binds”. ELDDEDFRCVCNFSEPQPDWSEAFQCVSAVEVEIHAGGLN [LPS binding region of CD14 N-terminus (CD14N)]: the binding result with transferrin [1] is “binds”.
